According to publication PMC9226502:

B1: MutL^WT (Escherichia coli MutL protein, wild type) [Escherichia coli] / MutS [not stated] (parent)
chain 1: MPIQVLPPQLANQIAAGEVVERPASVVKELVENSLDAGATRIDIDIERGGAKLIRIRDNGCGIKKDELALALARHATSKIASLDDLEAIISLGFRGEALASISSVSRLTLTSRTAEQQEAWQAYAEGRDMNVTVKPAAHPVGTTLEVLDLFYNTPARRKFLRTEKTEFNHIDEIIRRIALARFDVTINLSHNGKIVRQYRAVPEGGQKERRLGAICGTAFLEQALAIEWQHGDLTLRGWVADPNHTTPALAEIQYCYVNGRMMRDRLINHAIRQACEDKLGADQQPAFVLYLEIDPHQVDVNVHPAKHEVRFHQSRLVHDFIYQGVLSVLQQQLETPLPLDDEPQPAPRSIPENRVAAGRNHFAEPAAREPVAPRYTPAPASGSRPAAPWPNAQPGYQKQQGEVYRQLLQTPAPMQKLKAPEPQEPALAANSQSFGRVLTIVHSDCALLERDGNISLLSLPVAERWLRQAQLTPGEAPVCAQPLLIPLRLKVSAEEKSALEKAQSALAELGIDFQSDAQHVTIRAVPLPLRQQNLQILIPELIGYLAKQSVFEPGNIAQWIARNLMSEHAQWSMAQAITLLADVERLCPQLVKTPPGGLLQSVDLHPAIKALKDE
chain 2: MSAIENFDAHTPMMQQYLRLKAQHPEILLFYRMGDFYELFYDDAKRASQLLDISLTKRGASAGEPIPMAGIPYHAVENYLAKLVNQGESVAICEQIGDPATSKGPVERKVVRIVTPGTISDEALLQERQDNLLAAIWQDSKGFGYATLDISSGRFRLSEPADRETMAAELQRTNPAELLYAEDFAEMSLIEGRRGLRRRPLWEFEIDTARQQLNLQFGTRDLVGFGVENAPRGLCAAGCLLQYAKDTQRTTLPHIRSITMEREQDSIIMDAATRRNLEITQNLAGGAENTLASVLDCTVTPMGSRMLKRWLHMPVRDTRVLLERQQTIGALQDFTAGLQPVLRQVGDLERILARLALRTARPRDLARMRHAFQQLPELRAQLETVDSAPVQALREKMGEFAELRDLLERAIIDTPPVLVRDGGVIASGYNEELDEWRALADGATDYLERLEVRERERTGLDTLKVGFNAVHGYYIQISRGQSHLAPINYMRRQTLKNAERYIIPELKEYEDKVLTSKGKALALEKQLYEELFDLLLPHLEALQQSASALAELDVLVNLAERAYTLNYTCPTFIDKPGIRITEGRHPVVEQVLNEPFIANPLNLSPQRRMLIITGPNMGGKSTYMRQTALIALMAYIGSYVPAQKVEIGPIDRIFTRVGAADDLASGRSTFMVEMTETANILHNATEYSLVLMDEIGRGTSTYDGLSLAWACAENLANKIKALTLFATHYFELTQLPEKMEGVANVHLDALEHGDTIAFMHSVQDGAASKSYGLAVAALAGVPKEVIKRARQKLRELESISPNAAATQVDGTQMSLLSVPEETSPAVEALENLDPDSLTPRQALEWIYRLKSLV

Variants of: B1
Assay: BLI
Conditions: with MutS, 100 nM MutS, end-blocked DNA substrate with a single mismatch, read off a plot; for response: top green curve (taken as 150 nM MutL), peak at about 200 s, parent: 3.3

koff (19 nM MutL, parent: 0.0053) [s⁻¹]	koff (37 nM MutL, parent: 0.0032) [s⁻¹]	koff (75 nM MutL, parent: 0.0031) [s⁻¹]	koff (150 nM MutL, parent: 0.0033) [s⁻¹]	response [nm]	Variant
0.006	0.0046	0.0036	0.0038	2.7	chain 1 H319A
0.0063	0.0047	0.0038	0.0035	2.7	chain 1 H270A
0.0096	0.0092	0.0082	0.0075	2.1	chain 1 H270A H319A
